Experimental data as given in doi:10.1101/2021.11.05.467472 (bioRxiv, 2021).

B5: NTD_(1-53)-sfGFP-His (domain or fragment)
chain: MNTRNTRSKQRAPFGVSSSVKPRLDLIEQAPNPAYDRHPACITLPERTCRHPL

Experiments:
cryo-EM structure = target: the molecule itself; test: cryo-EM structure
[1] = target: T1, Rubisco-strep (H. neapolitanus CbbL8S8) (H. neapolitanus, UniProt O85040 1-473; P45686 1-110); test: BLI
NTD_(1-53)-sfGFP-His = target: B5; test: BLI
[2] = target: T1, Rubisco-strep (H. neapolitanus CbbL8S8); test: SEC
biotinylated Rubisco = biotinylated Rubisco (H. neapolitanus, UniProt O85040 1-473; P45686 1-110, biotin (subunit and site not stated)); test: BLI
[3] = target: T1, Rubisco-strep (H. neapolitanus CbbL8S8); test: cryo-EM structure
[4] = target: T2, CbbS (Rubisco small subunit) (H. neapolitanus, UniProt P45686 1-110); test: cryo-EM structure
T2 sequence: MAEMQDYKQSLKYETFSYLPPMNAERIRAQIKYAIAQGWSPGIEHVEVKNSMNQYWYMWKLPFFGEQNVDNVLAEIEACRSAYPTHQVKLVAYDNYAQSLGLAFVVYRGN

B1: CbbL (Rubisco large subunit) (natural protein)
chain: MAVKKYSAGVKEYRQTYWMPEYTPLDSDILACFKITPQPGVDREEAAAAVAAESSTGTWTTVWTDLLTDMDYYKGRAYRIEDVPGDDAAFYAFIAYPIDLFEEGSVVNVFTSLVGNVFGFKAVRGLRLEDVRFPLAYVKTCGGPPHGIQVERDKMNKYGRPLLGCTIKPKLGLSAKNYGRAVYECLRGGLDFTKDDENINSQPFMRWRDRFLFVQDATETAEAQTGERKGHYLNVTAPTPEEMYKRAEFAKEIGAPIIMHDYITGGFTANTGLAKWCQDNGVLLHIHRAMHAVIDRNPNHGIHFRVLTKILRLSGGDHLHTGTVVGKLEGDRASTLGWIDLLRESFIPEDRSRGIFFDQDWGSMPGVFAVASGGIHVWHMPALVNIFGDDSVLQFGGGTLGHPWGNAAGAAANRVALEACVEARNQGRDIEKEGKEILTAAAQHSPELKIAMETWKEIKFEFDTVDKLDTQNR
cryo-EM structure
  binding result: binds

B2: NTD_(1-53)-sfGFP R23A (domain or fragment)
chain: MNTRNTRSKQRAPFGVSSSVKPALDLIEQAPNPAYDRHPACITLPERTCRHPL
[1]
  binding result: binds

B3: Rubisco CbbL D99A (complex)
chain 1: MAVKKYSAGVKEYRQTYWMPEYTPLDSDILACFKITPQPGVDREEAAAAVAAESSTGTWTTVWTDLLTDMDYYKGRAYRIEDVPGDDAAFYAFIAYPIALFEEGSVVNVFTSLVGNVFGFKAVRGLRLEDVRFPLAYVKTCGGPPHGIQVERDKMNKYGRPLLGCTIKPKLGLSAKNYGRAVYECLRGGLDFTKDDENINSQPFMRWRDRFLFVQDATETAEAQTGERKGHYLNVTAPTPEEMYKRAEFAKEIGAPIIMHDYITGGFTANTGLAKWCQDNGVLLHIHRAMHAVIDRNPNHGIHFRVLTKILRLSGGDHLHTGTVVGKLEGDRASTLGWIDLLRESFIPEDRSRGIFFDQDWGSMPGVFAVASGGIHVWHMPALVNIFGDDSVLQFGGGTLGHPWGNAAGAAANRVALEACVEARNQGRDIEKEGKEILTAAAQHSPELKIAMETWKEIKFEFDTVDKLDTQNR
chain 2: MAEMQDYKQSLKYETFSYLPPMNAERIRAQIKYAIAQGWSPGIEHVEVKNSMNQYWYMWKLPFFGEQNVDNVLAEIEACRSAYPTHQVKLVAYDNYAQSLGLAFVVYRGN
NTD_(1-53)-sfGFP-His
  fold increase in KD against wild type: 10 fold

B4: Rubisco CbbL Y72A (complex)
chain 1: MAVKKYSAGVKEYRQTYWMPEYTPLDSDILACFKITPQPGVDREEAAAAVAAESSTGTWTTVWTDLLTDMDAYKGRAYRIEDVPGDDAAFYAFIAYPIDLFEEGSVVNVFTSLVGNVFGFKAVRGLRLEDVRFPLAYVKTCGGPPHGIQVERDKMNKYGRPLLGCTIKPKLGLSAKNYGRAVYECLRGGLDFTKDDENINSQPFMRWRDRFLFVQDATETAEAQTGERKGHYLNVTAPTPEEMYKRAEFAKEIGAPIIMHDYITGGFTANTGLAKWCQDNGVLLHIHRAMHAVIDRNPNHGIHFRVLTKILRLSGGDHLHTGTVVGKLEGDRASTLGWIDLLRESFIPEDRSRGIFFDQDWGSMPGVFAVASGGIHVWHMPALVNIFGDDSVLQFGGGTLGHPWGNAAGAAANRVALEACVEARNQGRDIEKEGKEILTAAAQHSPELKIAMETWKEIKFEFDTVDKLDTQNR
chain 2: MAEMQDYKQSLKYETFSYLPPMNAERIRAQIKYAIAQGWSPGIEHVEVKNSMNQYWYMWKLPFFGEQNVDNVLAEIEACRSAYPTHQVKLVAYDNYAQSLGLAFVVYRGN
NTD_(1-53)-sfGFP-His
  fold increase in KD against wild type: 10 fold

## B5
[2]
  binding result: binds

B6: CsoSCA-MBP (enzyme)
chain: MNTRNTRSKQRAPFGVSSSVKPRLDLIEQAPNPAYDRHPACITLPERTCRHPLTDLEANEQLGRCEDSVKNRFDRVIPFLQVVAGIPLGLDYVTRVQELAQSSLGHTLPEELLKDNWISGHNLKGIFGYATAKALTAATEQFSRKIMSEKDDSASAIGFFLDCGFHAVDISPCADGRLKGLLPYILRLPLTAFTYRKAYAGSMFDIEDDLAQWEKNELRRYREGVPNTADQPTRYLKIAVYHFSTSDPTHSGCAAHGSNDRAALEAALTQLMKFREAVENAHCCGASIDILLIGVDTDTDAIRVHIPDSKGFLNPYRYVDNTVTYAQTLHLAPDEARVIIHEAILNANRSDGWAKGNGVASEGMRRFIGQLLINNLSQIDYVVNRHGGRYPPNDIGHAERYISVGDGFDEVQIRNLAYYAHLDTVEENAIDVDVGIKIFTKLNLSRGLPIPIAIHYRYDPNVPGSRERTVVKARRIYNAIKERFSSLDEQNLLQFRLSVQAQDIGSPIEEVASA
Biotinylated Rubisco
  Kd: 1.2 ± 0.1 nM

B7: NTD_(1-50) peptide (CsoSCA residue 1-50) (peptide)
peptide: MNTRNTRSKQRAPFGVSSSVKPRLDLIEQAPNPAYDRHPACITLPERTCR
[3]
  stoichiometry N: 8
[4]
  binding result: binds
